Here are results for one molecule from paper PMC9168836, “Clamping of DNA shuts the condensin neck gate” (Proceedings of the National Academy of Sciences of the …, 2021).

For one assay, the target named is T1, Smc2 (budding yeast (S. cerevisiae), UniProt P38989 1-1170).
T1 construct: Smc2, SMC subunit of budding yeast (S. cerevisiae) condensin; only the head domain and proximal coiled coil (neck) are resolved in the maps; Subunit of the wild-type condensin tetramer and pentamer used for cryo-EM
T1 sequence: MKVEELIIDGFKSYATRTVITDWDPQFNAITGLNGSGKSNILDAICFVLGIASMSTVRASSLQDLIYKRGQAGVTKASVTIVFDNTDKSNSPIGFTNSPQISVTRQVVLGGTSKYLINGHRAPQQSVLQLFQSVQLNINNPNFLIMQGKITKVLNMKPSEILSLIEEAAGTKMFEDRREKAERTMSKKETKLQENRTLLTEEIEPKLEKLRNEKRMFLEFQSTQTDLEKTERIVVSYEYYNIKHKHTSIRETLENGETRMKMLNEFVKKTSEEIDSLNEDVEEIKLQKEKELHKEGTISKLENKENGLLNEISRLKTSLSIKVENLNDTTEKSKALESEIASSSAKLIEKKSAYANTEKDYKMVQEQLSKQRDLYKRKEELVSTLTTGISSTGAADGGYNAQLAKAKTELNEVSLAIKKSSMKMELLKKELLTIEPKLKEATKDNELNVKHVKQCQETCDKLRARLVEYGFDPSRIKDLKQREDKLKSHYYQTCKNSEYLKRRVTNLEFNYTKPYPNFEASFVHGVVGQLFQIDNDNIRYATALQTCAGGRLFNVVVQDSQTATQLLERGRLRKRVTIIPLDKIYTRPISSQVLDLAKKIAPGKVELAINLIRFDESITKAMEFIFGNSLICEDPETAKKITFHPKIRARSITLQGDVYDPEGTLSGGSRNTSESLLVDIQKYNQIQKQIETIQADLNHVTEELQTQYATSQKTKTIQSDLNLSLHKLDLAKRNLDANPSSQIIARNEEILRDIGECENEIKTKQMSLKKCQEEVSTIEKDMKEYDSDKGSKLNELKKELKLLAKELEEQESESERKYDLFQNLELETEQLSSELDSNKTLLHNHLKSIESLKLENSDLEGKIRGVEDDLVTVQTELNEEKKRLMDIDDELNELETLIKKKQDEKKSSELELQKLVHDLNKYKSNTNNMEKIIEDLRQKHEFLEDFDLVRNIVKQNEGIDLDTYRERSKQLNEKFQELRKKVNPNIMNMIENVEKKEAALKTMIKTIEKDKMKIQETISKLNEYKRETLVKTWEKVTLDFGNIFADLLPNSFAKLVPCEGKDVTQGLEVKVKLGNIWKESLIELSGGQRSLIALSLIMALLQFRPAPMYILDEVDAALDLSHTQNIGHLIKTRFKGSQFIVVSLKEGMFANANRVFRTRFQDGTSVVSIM
The experiment in a line: cryo-EM structure; condensin pentamer with 100 nM relaxed circular DNA (1,789 bp), 5 mM ADP, 1 mM BeSO4, 10 mM NaF in TNT buffer pH 7.5; VPP and non-VPP images; low-resolution maps of the head module and of Ycg1-DNA. To be noted: both partners purified.

The target in the next assay is T2, Ycs4 (S. cerevisiae, UniProt Q06156 1-1176).
T2 construct: Ycs4, HAWK (HEAT repeat) subunit of S. cerevisiae condensin
T2 sequence: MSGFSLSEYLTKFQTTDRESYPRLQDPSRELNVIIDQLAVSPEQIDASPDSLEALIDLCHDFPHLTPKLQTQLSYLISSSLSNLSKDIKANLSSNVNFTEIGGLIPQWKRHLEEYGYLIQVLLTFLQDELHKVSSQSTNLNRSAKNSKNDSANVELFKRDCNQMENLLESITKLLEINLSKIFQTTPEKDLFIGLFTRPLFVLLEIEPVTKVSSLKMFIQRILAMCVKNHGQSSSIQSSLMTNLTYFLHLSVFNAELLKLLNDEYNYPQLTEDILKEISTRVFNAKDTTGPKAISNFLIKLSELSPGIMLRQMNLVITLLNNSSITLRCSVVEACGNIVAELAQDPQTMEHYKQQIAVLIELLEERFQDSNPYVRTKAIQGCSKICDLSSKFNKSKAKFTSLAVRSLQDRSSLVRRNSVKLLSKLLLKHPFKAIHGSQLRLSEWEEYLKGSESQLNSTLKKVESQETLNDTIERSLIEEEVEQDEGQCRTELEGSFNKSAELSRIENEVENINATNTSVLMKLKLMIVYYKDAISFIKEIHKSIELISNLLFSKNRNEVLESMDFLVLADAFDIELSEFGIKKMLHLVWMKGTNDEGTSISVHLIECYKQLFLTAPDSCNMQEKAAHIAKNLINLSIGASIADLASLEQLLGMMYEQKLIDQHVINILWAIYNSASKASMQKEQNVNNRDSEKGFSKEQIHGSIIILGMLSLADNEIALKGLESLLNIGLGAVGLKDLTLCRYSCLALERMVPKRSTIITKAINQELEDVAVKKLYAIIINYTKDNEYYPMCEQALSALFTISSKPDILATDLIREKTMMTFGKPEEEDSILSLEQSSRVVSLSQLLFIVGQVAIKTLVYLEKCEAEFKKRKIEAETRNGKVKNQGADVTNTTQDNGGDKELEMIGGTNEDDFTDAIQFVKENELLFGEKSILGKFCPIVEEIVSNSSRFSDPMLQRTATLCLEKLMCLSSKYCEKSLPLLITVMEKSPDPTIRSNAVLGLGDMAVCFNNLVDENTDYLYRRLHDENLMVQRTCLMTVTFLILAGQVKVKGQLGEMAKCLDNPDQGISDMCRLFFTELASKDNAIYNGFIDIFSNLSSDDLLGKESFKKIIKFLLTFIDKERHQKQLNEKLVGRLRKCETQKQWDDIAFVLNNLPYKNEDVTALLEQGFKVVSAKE
The assay is described as above. Conditions: both partners purified.

B1: Brn1-HA3-His12 (natural protein, budding yeast (S. cerevisiae), UniProt P38170 1-754, looked up)
chain: MTTQLRYENNDDDERVEYNLFTNRSTMMANFEEWIKMATDNKINSRNSWNFALIDYFYDLDVLKDGENNINFQKASATLDGCIKIYSSRVDSVTTETGKLLSGLAQRKTNGASNGDDSNGGNGEGLGGDSDEANIEIDPLTGMPISNDPDVNNTRRRVYNRVLETTLVEFETIKMKELDQELIIDPLFKKALVDFDEGGAKSLLLNTLNIDNTARVIFDASIKDTQNVGQGKLQRKEEELIERDSLVDDENEPSQSLISTRNDSTVNDSVISAPSMEDEILSLGMDFIKFDQIAVCEISGSIEQLRNVVEDINQAKDFIENVNNRFDNFLTEEELQAAVPDNAEDDSDGFDMGMQQELCYPDENHDNTSHDEQDDDNVNSTTGSIFEKDLMAYFDENLNRNWRGREHWKVRNFKKANLVNKESDLLEETRTTIGDTTDKNTTDDKSMDTKKKHKQKKVLEIDFFKTDDSFEDKVFASKGRTKIDMPIKNRKNDTHYLLPDDFHFSTDRITRLFIKPGQKMSLFSHRKHTRGDVSSGLFEKSTVSANHSNNDIPTIADEHFWADNYERKEQEEKEKEQSKEVGDVVGGALDNPFEDDMDGVDFNQAFEGTDDNEEASVKLDLQDDEDHKFPIRENKVTYSRVSKKVDVRRLKKNVWRSINNLIQEHDSRKNREQSSNDSETHTEDESTKELKFSDIIQGISKMYSDDTLKDISTSFCFICLLHLANEHGLQITHTENYNDLIVNYEDLATTQAAS
notes: Brn1, kleisin subunit of budding yeast (S. cerevisiae) condensin; 754 residues as printed (279/754 traced in the head module map); The tags' end is read from the plasmid's name BRN1-HA3-His12; also called kleisin Brn1
In the case of B1, the binding result in the assay with Smc2 and with Ycs4 was “binds” throughout.
